{
  "source": "patent US20160075790A1",
  "about": "(Bristol-Myers Squibb, published 2016)",
  "binders": {"B1": {"name": "BMS2h-758-4 (other)", "VH": "EVQLLESGGGLVQPGGSLRLSCAASGFTFGDYGMNWVRQAPGKGLEWVSHISSNGRFTYYADSVKGRFTISRDNSKNTLFLQMNSLRAEDTAVYYCAETSGYYEYWGHGTLVTVSS"}, "B2": {"name": "BMS2h-758-5 (other)", "VH": "B1 VH with T28A, F80Y, Y103F, H108Q"}, "B3": {"name": "BMS2h-765 (other)", "VH": "EVQLLESGGGLVQPGGSLRLSCAASGFTFSAYTMEWVRQAPGKGLEWVSSIGVTGYDTYYADSVKGRFTISRDNSKNTLYLQMNSLRAEDTAVYYCAKGGQGFDYWGQGTLVTVSS"}, "B4": {"name": "BMS2h-766 (other)", "VH": "EVQLLESGGGLVQPGGSLRLSCAASGFTFGDYGMSWVRQAPGKGLEWVSYIDPLGRLTYYADSVKGRFTISRDNSKNTLYLQMNSLRAEDTAVYYCAEDLSSLQYGVSPNFDYWGQGTLVTVSS"}, "B5": {"name": "BMS2h-774 (other)", "VH": "EVQLLESGGGLVQPGGSLRLSCAASGFTFREYDMGWVRQAPGKGLEWVSLISPPGRTTYYADSVKGRFTISRDNSKNTLYLQMNSLRAEDTAVYYCAKVVILGYTNRFDYWGQGTLVTVSS"}, "B6": {"name": "BMS2h-775 (other)", "VH": "EVQLLESGGGLVQPGGSLRLSCAASGFTFPNYGMLWVRQAPGKGLEWVSSINSSGMETYYADSVKGRFTISRDNSKNTLYLQMNSLRAEDTAVYYCAKFFRLNDHNSVFGFDYWGQGTLVTVSS"}, "B7": {"name": "BMS2h-780 (other)", "VH": "EVQLLESGGGLVQPGGSLRLSCAASGFTFGSYTMMWVRQAPGKGLEWVSEIDRTGERTYYADSVKGRFTISRDNSKNTLYLQMNSLRAEDTAVYYCAEPGFASLPFDYWGQGTLVTVSS"}, "B8": {"name": "BMS2h-781 (other)", "VH": "EVQLLESGGGLVQPGGSLRLSCAASGFTFTDYTMYWVRQAPGKGLEWVSKISPSGRSTYYADSVKGRFTISRDNSKNTLYLQMNSLRAEDTAVYYCAKDPFGFDYWGQGTLVTVSS"}, "B9": {"name": "BMS2h-782 (other)", "VH": "EVQLLESGGGLVQPGGSLRLSCAASGFTFDDAEMFWVRQAPGKGLEWVSSIDARGLTTYYADPVKGRFTISRDNSKNTLYLQMNSLRAEDTAVYYCAEATSAMYPFDYWGQGTLVTVSS"}, "B10": {"name": "BMS2h-783 (other)", "VH": "EVQLLESGGGLVQPGGSLRLSCAASGFTFRDYDMGWVRQAPGKGLEWVSTISPLGHFTYYADSVKGRFTISRDNSKNTLYLQMNSLRAEDTAVYYCAKSGFHEYTEGFDYWGQGTLVTVSS"}, "B11": {"name": "BMS2h-784 (other)", "VH": "EVQLLESGGGLVQPGGSLRLSCAASGFTFDRAGMGWVRQAPGKGLEWVSLIGRGGDITYYADSVKGRFTISRDNSKNTLYLQMNSLRAEDTAVYYCAKIRNLHWDVGRQFDYWGQGTLVTVSS"}, "B12": {"name": "BMS2h-785 (other)", "VL": "DIQMTQSPSSLSASVGDRVTITCRASQPIYGWLNWYQQKPGKAPKLLIYLTSGLQSGVPSRFSGSGSGTDFTLTISSLQPEDFATYYCQQIHSSPFTFGQGTKVEIKR"}, "B13": {"name": "BMS2h-437 (other)", "VL": "DIQMTQSPSSLSASVGDRVTITCRASTPIGTMLDWYQQKPGKAPKLLIGHSSWLQSGVPSRFSGSGSGTDFTLTISSLQPEDFATYYCGQHVRPPATFGQGTKVEIKR"}},
  "note": "Where a chain is given by its changes, count along the chain named. “And” between values parts separate entries of the source, which are not always exact repeats. Equal values may be shown once.",
  "data": [
    {"target": "T1, human isoleucine zipper-CD40L (IZ-hCD40L) (human, UniProt P29965 113-261)", "T1 sequence": "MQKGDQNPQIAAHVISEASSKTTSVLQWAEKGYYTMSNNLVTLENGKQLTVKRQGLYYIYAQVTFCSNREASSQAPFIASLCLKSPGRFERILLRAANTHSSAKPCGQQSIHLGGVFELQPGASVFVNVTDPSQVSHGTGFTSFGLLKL", "experiment": "cell-based or functional assay", "values": [
      {"binder": "B1", "hIZCD40L-driven Human B Cell Proliferation EC50": "> 7 µM"},
      {"binder": "B2", "hIZCD40L-driven Human B Cell Proliferation EC50": "> 7 µM"},
      {"binder": "B3", "hIZCD40L-driven Human B Cell Proliferation EC50": "> 7 µM"},
      {"binder": "B4", "hIZCD40L-driven Human B Cell Proliferation EC50": "> 7 µM"},
      {"binder": "B5", "hIZCD40L-driven Human B Cell Proliferation EC50": "> 7 µM"},
      {"binder": "B6", "hIZCD40L-driven Human B Cell Proliferation EC50": "> 7 µM"},
      {"binder": "B7", "hIZCD40L-driven Human B Cell Proliferation EC50": "> 7 µM"},
      {"binder": "B8", "hIZCD40L-driven Human B Cell Proliferation EC50": "> 7 µM"},
      {"binder": "B9", "hIZCD40L-driven Human B Cell Proliferation EC50": "> 7 µM"},
      {"binder": "B10", "hIZCD40L-driven Human B Cell Proliferation EC50": "> 2 µM"},
      {"binder": "B11", "hIZCD40L-driven Human B Cell Proliferation EC50": "> 4.7 µM"},
      {"binder": "B12", "hIZCD40L-driven Human B Cell Proliferation EC50": "3.7 µM and > 7 µM"},
      {"binder": "B13", "hIZCD40L-driven Human B Cell Proliferation EC50": "5.7 µM"}
    ]}
  ]
}
